T1: Human latent myostatin (human, UniProt O14793 25-266; O14793 267-375)
T1 construct: Biotinylated in the ELISAs; also called human myostatin latent form
T1 sequence 1: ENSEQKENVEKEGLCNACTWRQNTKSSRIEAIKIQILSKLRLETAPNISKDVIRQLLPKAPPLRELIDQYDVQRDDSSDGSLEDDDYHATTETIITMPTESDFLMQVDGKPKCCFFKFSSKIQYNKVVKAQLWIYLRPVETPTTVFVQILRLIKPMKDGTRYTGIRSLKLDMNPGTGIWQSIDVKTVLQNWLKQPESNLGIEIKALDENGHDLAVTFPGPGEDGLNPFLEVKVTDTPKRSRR
T1 sequence 2: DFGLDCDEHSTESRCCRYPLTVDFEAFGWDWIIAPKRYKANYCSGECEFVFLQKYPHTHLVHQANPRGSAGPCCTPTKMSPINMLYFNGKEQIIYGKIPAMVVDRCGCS

T2: Cynomolgus monkey latent myostatin (cynomolgus monkey, UniProt Q95J86 25-266; Q95J86 267-375)
T2 construct: Latent form = complex of two propeptides and the mature dimer; also called Cyno latent myostatin
T2 sequence 1: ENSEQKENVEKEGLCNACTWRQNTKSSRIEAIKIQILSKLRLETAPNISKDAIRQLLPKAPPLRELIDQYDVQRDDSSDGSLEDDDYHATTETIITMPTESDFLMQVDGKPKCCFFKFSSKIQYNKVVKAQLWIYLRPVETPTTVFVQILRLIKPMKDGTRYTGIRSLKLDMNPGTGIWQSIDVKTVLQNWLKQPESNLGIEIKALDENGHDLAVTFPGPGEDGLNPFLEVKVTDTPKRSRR
T2 sequence 2: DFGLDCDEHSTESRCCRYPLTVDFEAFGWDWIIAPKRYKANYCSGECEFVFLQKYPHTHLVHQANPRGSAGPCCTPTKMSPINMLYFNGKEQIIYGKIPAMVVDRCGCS

T3: Human latent myostatin (human, UniProt O14793 25-266; O14793 267-375)
T3 construct: also called human myostatin latent form
T3 sequence 1: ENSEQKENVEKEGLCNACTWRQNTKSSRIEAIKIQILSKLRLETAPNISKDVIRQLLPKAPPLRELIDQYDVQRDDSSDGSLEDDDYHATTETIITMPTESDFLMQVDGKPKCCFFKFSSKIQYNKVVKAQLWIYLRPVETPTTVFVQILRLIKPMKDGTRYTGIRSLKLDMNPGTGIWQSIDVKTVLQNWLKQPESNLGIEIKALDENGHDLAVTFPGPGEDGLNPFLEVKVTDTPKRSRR
T3 sequence 2: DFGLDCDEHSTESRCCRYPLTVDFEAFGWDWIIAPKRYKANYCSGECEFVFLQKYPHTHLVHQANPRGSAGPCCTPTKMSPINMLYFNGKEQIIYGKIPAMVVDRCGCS

T4: Mouse latent myostatin (mouse, UniProt O08689 26-267; O08689 268-376)
T4 construct: Latent form = complex of two propeptides and the mature dimer
T4 sequence 1: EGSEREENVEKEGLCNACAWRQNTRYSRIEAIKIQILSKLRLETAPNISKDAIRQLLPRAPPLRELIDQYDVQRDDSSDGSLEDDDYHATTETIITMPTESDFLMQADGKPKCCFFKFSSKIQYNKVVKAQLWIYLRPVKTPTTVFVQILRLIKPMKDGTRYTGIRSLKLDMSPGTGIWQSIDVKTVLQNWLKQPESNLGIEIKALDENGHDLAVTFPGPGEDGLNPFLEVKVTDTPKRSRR
T4 sequence 2: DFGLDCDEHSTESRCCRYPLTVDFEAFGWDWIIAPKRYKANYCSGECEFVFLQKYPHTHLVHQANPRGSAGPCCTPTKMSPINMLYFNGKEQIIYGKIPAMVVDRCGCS


Columns and labels:
Human latent myostatin [1] = biological target: T1, Human latent myostatin; experiment: SPR (BIACORE T200), 37 C, pH7.4, avidity condition (capture 185 RU), 1:1 fit; pH 7.4
Method: (§1) The kinetic parameters of anti-latent myostatin antibodies against human, cynomolgus monkey (cyno), and mouse latent myostatin were assessed at 37° C. at pH7.4 using a BIACORE® T200 instrument (GE Healthcare). ProA/G (Pierce) was immobilized onto all flow cells of a CM4 chip using amine coupling kit (GE Healthcare). Anti-latent myostatin antibody and analytes were prepared in ACES pH7.4 (20 mM ACES, 150 mM NaCl, 1.2 mM CaCl₂), 0.05% TWEEN® 20, 0.005% NaN₃). […] Then human, cyno, or mouse latent myostatin was injected at 3.125 to 50 nM prepared by two-fold serial dilution, followed by dissociation. The sensor surface was regenerated with 25 mM NaOH. Kinetic parameters were determined by processing and fitting the data to a 1:1 binding model using BIACORE® T200 Evaluation software, version 2.0 (GE Healthcare).
(§2) All experimental settings were the same as in Example 7, except that measurements were also performed in ACES pH5.8 buffer in addition to ACES pH7.4 condition. Some antibodies were only measured against human latent myostatin. Antibody capture level was aimed at 185 RU and 18.5 RU, for avidity and affinity assay, respectively. Kinetic parameters were determined using 1:1 Binding fitting using BIACORE® T200 Evaluation software, version 2.0 (GE Healthcare).

Human latent myostatin [2] = biological target: T1, Human latent myostatin; experiment: SPR (BIACORE T200), 37 C, pH7.4, 1:1 fit; title prints avidity, by the text the affinity condition (capture 18.5 RU)
Method: as §1, §2

Human latent myostatin [3] = biological target: T1, Human latent myostatin; experiment: SPR (BIACORE T200), 37 C, pH5.8, avidity condition (capture 185 RU), 1:1 fit; pH 5.8
Method: as §1, §2

[4] = biological target: T2, Cynomolgus monkey latent myostatin; experiment: SPR (BIACORE T200) 37C, pH 7.4, antibody captured by ProA/G
Method: (§3) ProA/G (Pierce) was immobilized onto all flow cells of a CM4 chip using an amine coupling kit (GE Healthcare). All antibodies and analytes were prepared in ACES pH7.4 or pH5.8 buffer containing 20 mM ACES, 150 mM NaCl, 1.2 mM CaCl₂, 0.05% TWEEN®) 20, 0.005% NaN₃. […] Human, cyno, and mouse latent myostatin was injected at 3.125 to 50 nM prepared by two-fold serial dilution, followed by dissociation. The sensor surface was regenerated each cycle with 10 mM Glycine HCl pH1.5. Binding affinity was determined by processing and fitting the data to a 1:1 binding model using BIACORE® T200 Evaluation software, version 2.0 (GE Healthcare).

Human latent myostatin [5] = biological target: T3, Human latent myostatin; experiment: as above
Method: as §3

Mouse latent myostatin [6] = biological target: T4, Mouse latent myostatin; experiment: as above
Method: as §3

[7] = biological target: T2, Cynomolgus monkey latent myostatin; experiment: SPR 37C; KD pH 5.8 / KD pH 7.4
Method: as §3

Human latent myostatin [8] = biological target: T3, Human latent myostatin; experiment: SPR 37C; KD pH 5.8 / KD pH 7.4
Method: as §3

Mouse latent myostatin [9] = biological target: T4, Mouse latent myostatin; experiment: SPR 37C; KD pH 5.8 / KD pH 7.4
Method: as §3

[10] = biological target: T2, Cynomolgus monkey latent myostatin; experiment: SPR (BIACORE T200) 37C, pH 5.8, antibody captured by ProA/G
Method: as §3

Human latent myostatin [11] = biological target: T3, Human latent myostatin; experiment: as above
Method: as §3

Mouse latent myostatin [12] = biological target: T4, Mouse latent myostatin; experiment: as above
Method: as §3

Kd (Human latent myostatin [1]) [nM]	koff (Human latent myostatin [1]) [s⁻¹]	kon (Human latent myostatin [1]) [M⁻¹ s⁻¹]	Kd (Human latent myostatin [2]) [nM]	koff (Human latent myostatin [2]) [s⁻¹]	kon (Human latent myostatin [2]) [M⁻¹ s⁻¹]	Kd (Human latent myostatin [3]) [nM]	koff (Human latent myostatin [3]) [s⁻¹]	kon (Human latent myostatin [3]) [M⁻¹ s⁻¹]	Kd [4] [nM]	Kd (Human latent myostatin [5]) [nM]	Kd (Mouse latent myostatin [6]) [nM]	ratio of KD at pH 5.8/pH 7.4 [7]	ratio of KD at pH 5.8/pH 7.4 (Human latent myostatin [8])	ratio of KD at pH 5.8/pH 7.4 (Mouse latent myostatin [9])	Kd [10] [nM]	Kd (Human latent myostatin [11]) [nM]	Kd (Mouse latent myostatin [12]) [nM]	Binder
									0.189	0.164	0.176	5	9	6	0.929	1.52	1.02	MS_M103205H1795-SG1/M103202L1060-SK1 (antibody, human IgG1, kappa, V domains shown, also called MS1032LO24-SG1) VH: QVTLKESGPVLVKPTETLTLTCTVSGIDLSHDDISWVRQAPGKGLEWVGIISYAGSTYYASWAKGRLTISKDTSKNQVVLTMTNMDPVDTATYYCARGVPAYSHGGDLWGQGTLVTVSS VL: DIVMTQSPATLSLSPGERATLSCTSSQSVFHENWLSWFQQKPGQPPKLLIYWASTLAWGVPSRFSGSGSGTDFTLTISSLQPEDAATYYCAGGYGGGRYAFGQGTKVEIKR
0.196	0.000192	981000	1.08	0.00117	1.08e+06	9.66	0.00524	543000										MS_M103205H781-SG1/M103202L813-SK1 (antibody, human IgG1, kappa, V domains shown, also called MS1032LO03-SG1; MSLO-03) VH: QVTLKESGPVLVKPTETLTLTCTVSGIDLSHTDISWVRQAPGKGLEWVGIISYAGSTYYMSWAKGRLTISKDTSKNQVVLTMTNMDPVDTATYYCARGVPAYSHGGDLWGQGTLVTVSS VL: DIVMTQSPATLSLSPGERATLSCQTSQSVYHDNWLSWFQQKPGQPPKLLIYWASTLASGVPSRFSGSGSGTDFTLTISSLQPEDAATYYCAGGYGGGRYAFGQGTKVEIKR

The remaining lines, values behind:

Binder	Kd (Human latent myostatin [1]) [nM]	koff (Human latent myostatin [1]) [s⁻¹]	kon (Human latent myostatin [1]) [M⁻¹ s⁻¹]	Kd (Human latent myostatin [2]) [nM]	koff (Human latent myostatin [2]) [s⁻¹]	kon (Human latent myostatin [2]) [M⁻¹ s⁻¹]	Kd (Human latent myostatin [3]) [nM]	koff (Human latent myostatin [3]) [s⁻¹]	kon (Human latent myostatin [3]) [M⁻¹ s⁻¹]	Kd [4] [nM]	Kd (Human latent myostatin [5]) [nM]	Kd (Mouse latent myostatin [6]) [nM]	ratio of KD at pH 5.8/pH 7.4 [7]	ratio of KD at pH 5.8/pH 7.4 (Human latent myostatin [8])	ratio of KD at pH 5.8/pH 7.4 (Mouse latent myostatin [9])	Kd [10] [nM]	Kd (Human latent myostatin [11]) [nM]	Kd (Mouse latent myostatin [12]) [nM]
MS_M103205H781-SG1/M103202L719-SK1 (antibody, human IgG1, kappa, V domains shown, also called MS1032LO02-SG1; MSLO-02) VH: QVTLKESGPVLVKPTETLTLTCTVSGIDLSHTDISWVRQAPGKGLEWVGIISYAGSTYYMSWAKGRLTISKDTSKNQVVLTMTNMDPVDTATYYCARGVPAYSHGGDLWGQGTLVTVSS VL: DIVMTQSPATLSLSPGERATLSCQSSQSVYHNNWLSWFQQKPGQPPKLLIYWASTLAFGVPSRFSGSGSGTDFTLTISSLQPEDAATYYCAGGYGGGLYAFGQGTKVEIKR	0.298	0.000249	836000	1.64	0.00179	1.09e+06	24.3	0.0414	1.7e+06									
MS_M103205H1046-SG1/M103202L889-SK1 (antibody, human IgG1, kappa, V domains shown, also called MS1032LO10-SG1) VH: QVTLKESGPVLVKPTETLTLTCTVSGIDLSHTDISWVRQAPGKGLEWVGIISYAGKTYYASWAKKRLTISKDTSKNQVVLTMTNMDPVDTATYYCARGVPAYSHGGDLWGQGTLVTVSS VL: DIVMTQSPATLSLSPGERATLSCTSSQSVYHANWLSWFQQKPGQPPKLLIYWASTLAYGVPSRFSGSGSGTDFTLTISSLQPEDAATYYCAGGYGGGRYAFGQGTKVEIKR										0.419	0.351	0.334	38	125	35	16.1	43.8	10.9

— patent US20200317768A1 (published 2020)
